Assay results as given in the supplement of paper PMC9112550, “Optimization of the antimicrobial peptide Bac7 by deep mutational scanning” (BMC Biology, 2022).

Tested on: Escherichia coli TOP10
Experiment: shrunken log2 fold change of peptide-encoding DNA abundance (4.5 h post-induction vs induction); higher = less antimicrobial activity (less host growth inhibition)
Settings: time post-induction: 4.5 h; library: site-saturation at positions 5, 18, 19, 20
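Also: peptides expressed intracellularly from a pBAD plasmid library in pooled LB shake-flask culture, induced with 0.3% L-arabinose, DNA abundance read by NGS, three biological replicates, DESeq2 with apeglm shrinkage.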

Sequence | shrunken log2 fold change
RRIRARPPRLPRPRPRPLTAPRP | 0.542
RRIRKRPPRLPRPRPRPKGRPRP | 0.262
RRIRPRPPRLPRPRPRPHCPPRP | 0.0157
RRIRWRPPRLPRPRPRPSSKPRP | -0.369
RRIRQRPPRLPRPRPRPPQPPRP | 1.1
RRIRRRPPRLPRPRPRPKELPRP | 0.166
RRIRTRPPRLPRPRPRPFKYPRP | -0.114
RRIRSRPPRLPRPRPRPVFDPRP | 0.106
RRIRCRPPRLPRPRPRPKWYPRP | -0.239
RRIRERPPRLPRPRPRPKHLPRP | -0.202
RRIRRRPPRLPRPRPRPFGVPRP | 0.0764
RRIRWRPPRLPRPRPRPPQMPRP | 0.592
RRIRLRPPRLPRPRPRPSLDPRP | -0.142
RRIRRRPPRLPRPRPRPRLAPRP | 0.62
RRIRYRPPRLPRPRPRPQTWPRP | -0.573
RRIRRRPPRLPRPRPRPNNNPRP | -0.426
RRIRARPPRLPRPRPRPDWSPRP | 0.048
RRIRDRPPRLPRPRPRPEVLPRP | 1.14
RRIRPRPPRLPRPRPRPMNEPRP | -0.0529
RRIRNRPPRLPRPRPRPKICPRP | -0.262
RRIRWRPPRLPRPRPRPQDKPRP | -0.208
RRIRQRPPRLPRPRPRPIWSPRP | -0.514
RRIRWRPPRLPRPRPRPVCTPRP | 0.26
RRIRIRPPRLPRPRPRPNMVPRP | -0.383
RRIRCRPPRLPRPRPRPRYQPRP | -0.319

Sequence | shrunken log2 fold change
RRIRMRPPRLPRPRPRPHDIPRP | -0.104
RRIRARPPRLPRPRPRPKNTPRP | -0.0664
RRIRCRPPRLPRPRPRPNLPPRP | 0.649
RRIRERPPRLPRPRPRPVFSPRP | -0.191
RRIRYRPPRLPRPRPRPDDHPRP | -0.264
RRIRHRPPRLPRPRPRPLQFPRP | -0.28
RRIRCRPPRLPRPRPRPIMMPRP | -0.211
RRIRPRPPRLPRPRPRPFRIPRP | 0.000199
RRIRVRPPRLPRPRPRPQTNPRP | -0.0562
RRIRQRPPRLPRPRPRPGPMPRP | 0.261
RRIRQRPPRLPRPRPRPGNNPRP | -0.54
RRIRRRPPRLPRPRPRPYTNPRP | -0.95
RRIRCRPPRLPRPRPRPYKPPRP | -0.705
RRIRDRPPRLPRPRPRPKIRPRP | -0.0266
RRIRCRPPRLPRPRPRPHPPPRP | 0.809
RRIRGRPPRLPRPRPRPLVEPRP | 1.2
RRIRGRPPRLPRPRPRPFANPRP | 0.0848
RRIRWRPPRLPRPRPRPSCDPRP | 0.574
RRIRSRPPRLPRPRPRPDMVPRP | -0.00858
RRIRTRPPRLPRPRPRPGGCPRP | 0.26
RRIRIRPPRLPRPRPRPVWYPRP | -0.84
RRIRHRPPRLPRPRPRPDEVPRP | -0.00134
RRIRNRPPRLPRPRPRPIWEPRP | -0.131
RRIRCRPPRLPRPRPRPHEVPRP | 0.104
RRIRARPPRLPRPRPRPCFPPRP | -0.0469

Sequence | shrunken log2 fold change
RRIRIRPPRLPRPRPRPTCVPRP | 0.00176
RRIRCRPPRLPRPRPRPRCHPRP | 0.0572
RRIRQRPPRLPRPRPRPNTLPRP | 0.013
RRIRGRPPRLPRPRPRPYLWPRP | 0.146
RRIRVRPPRLPRPRPRPEDCPRP | -0.0557
RRIRPRPPRLPRPRPRPLEPPRP | 0.0434
RRIRHRPPRLPRPRPRPDTLPRP | 0.00779
RRIRERPPRLPRPRPRPHQYPRP | -0.00989
RRIRFRPPRLPRPRPRPPLNPRP | 0.0971
RRIRDRPPRLPRPRPRPASTPRP | 0.397
RRIRWRPPRLPRPRPRPCCCPRP | 0.129
RRIRCRPPRLPRPRPRPWRVPRP | 0.149
RRIRKRPPRLPRPRPRPRDRPRP | 1.26
RRIRGRPPRLPRPRPRPCRSPRP | -0.0741
RRIRMRPPRLPRPRPRPDKNPRP | 0.373
RRIRSRPPRLPRPRPRPTCHPRP | 0.024
RRIRTRPPRLPRPRPRPQVGPRP | -0.137
RRIRCRPPRLPRPRPRPTVKPRP | -0.286
RRIRVRPPRLPRPRPRPHKCPRP | -0.274
RRIRGRPPRLPRPRPRPCVRPRP | 0.079
RRIRCRPPRLPRPRPRPAHNPRP | -0.151
RRIRFRPPRLPRPRPRPPQYPRP | 0.0298
RRIRHRPPRLPRPRPRPAAKPRP | 0.218
RRIRIRPPRLPRPRPRPILQPRP | -0.146
RRIRHRPPRLPRPRPRPMAWPRP | 0.0581
